Reference: article PMC7873571

Biological target: Gli1 (from hisSUMO-Gli1, Addgene 87225, His-SUMO tag cleaved) (UniProt P08151 234-388)
Experiment: SPR

Chain of Gli1 (from hisSUMO-Gli1, Addgene 87225, His-SUMO tag cleaved) (P08151 234-388): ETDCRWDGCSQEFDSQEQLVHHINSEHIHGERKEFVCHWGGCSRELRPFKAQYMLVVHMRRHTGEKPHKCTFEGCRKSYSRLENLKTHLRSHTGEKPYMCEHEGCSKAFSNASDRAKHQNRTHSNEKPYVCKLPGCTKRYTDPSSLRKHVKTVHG

B1: biotinylated GLI1 consensus dsDNA (SPR) (dsDNA)
DNA 1: ACGTGGACCACCCAAGACGAA
DNA 2: TTTCGTCTTGGGTGGTCCACGT
  binding result: binds
